Assay [1] concerns the target T1, human G-CSF receptor on transfected mouse BaF3 cells (mBaF3/hG-CSFR) (human) (UniProt Q99062).
T1 sequence (looked up): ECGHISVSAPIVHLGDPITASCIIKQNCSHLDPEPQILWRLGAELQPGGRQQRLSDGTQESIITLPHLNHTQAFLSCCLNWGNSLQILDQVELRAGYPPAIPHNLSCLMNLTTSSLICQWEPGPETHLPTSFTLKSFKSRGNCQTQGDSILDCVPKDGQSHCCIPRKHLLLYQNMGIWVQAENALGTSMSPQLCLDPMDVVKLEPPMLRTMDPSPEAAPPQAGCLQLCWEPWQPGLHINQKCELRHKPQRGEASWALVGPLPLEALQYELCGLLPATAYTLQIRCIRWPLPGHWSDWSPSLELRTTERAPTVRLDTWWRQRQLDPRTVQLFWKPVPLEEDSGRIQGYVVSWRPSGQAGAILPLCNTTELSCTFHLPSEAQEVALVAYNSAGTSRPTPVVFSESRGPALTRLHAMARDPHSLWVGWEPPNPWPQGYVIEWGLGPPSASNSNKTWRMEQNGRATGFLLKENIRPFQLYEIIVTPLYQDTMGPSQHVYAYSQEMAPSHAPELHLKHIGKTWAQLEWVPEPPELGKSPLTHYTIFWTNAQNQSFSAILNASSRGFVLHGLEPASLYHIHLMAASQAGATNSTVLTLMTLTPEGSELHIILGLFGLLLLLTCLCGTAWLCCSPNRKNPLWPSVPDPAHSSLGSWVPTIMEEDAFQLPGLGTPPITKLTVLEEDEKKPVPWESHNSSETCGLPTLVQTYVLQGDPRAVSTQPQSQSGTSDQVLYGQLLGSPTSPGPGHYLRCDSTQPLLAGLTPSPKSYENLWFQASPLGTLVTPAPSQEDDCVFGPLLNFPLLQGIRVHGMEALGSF
The experiment in a line: cell-based or functional assay.

Assay [2] has as its target T2, chimeric Flt3/G-CSF receptor on transfected mouse Baf/3 cells (human) (UniProt P36888).
T2 sequence (looked up): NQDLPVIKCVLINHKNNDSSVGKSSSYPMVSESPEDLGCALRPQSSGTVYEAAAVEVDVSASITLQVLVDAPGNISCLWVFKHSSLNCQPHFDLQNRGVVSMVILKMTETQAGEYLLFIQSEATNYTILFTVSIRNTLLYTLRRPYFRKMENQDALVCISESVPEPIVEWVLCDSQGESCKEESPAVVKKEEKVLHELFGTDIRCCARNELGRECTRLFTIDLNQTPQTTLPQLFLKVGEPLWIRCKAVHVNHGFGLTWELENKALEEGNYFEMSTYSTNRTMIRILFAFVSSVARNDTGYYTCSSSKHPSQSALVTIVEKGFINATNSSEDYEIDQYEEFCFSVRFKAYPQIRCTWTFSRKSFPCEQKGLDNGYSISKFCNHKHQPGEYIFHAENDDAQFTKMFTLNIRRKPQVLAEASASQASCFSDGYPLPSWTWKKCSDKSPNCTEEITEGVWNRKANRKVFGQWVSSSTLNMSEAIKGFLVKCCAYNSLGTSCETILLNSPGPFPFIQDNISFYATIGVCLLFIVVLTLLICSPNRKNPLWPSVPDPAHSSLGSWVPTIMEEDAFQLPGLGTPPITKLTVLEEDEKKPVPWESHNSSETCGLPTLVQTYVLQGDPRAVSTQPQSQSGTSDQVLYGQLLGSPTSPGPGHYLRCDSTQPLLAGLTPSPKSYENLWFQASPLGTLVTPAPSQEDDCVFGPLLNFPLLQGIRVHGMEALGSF
The assay is described as follows: cell-based or functional assay.

The record followed here is US20060052291A1.

“recombinant human G-CSF (from UniProt P09919 31-204) (ligand)”: in assay [1], the Average EC50 (n = 9), BAF3/G-CSF cell proliferation ([3H]-thymidine) was 0.025 nM and the Average Rel. Potency, BAF3/G-CSF cell proliferation is 1. In addition, the Average EC50 (n = 12), BAF3/Flt cell proliferation ([3H]-thymidine) in assay [2] was more than 200 nM.

B1: recombinant human flt3 ligand (ligand, UniProt P49771 27-185, looked up)
chain: TQDCSFQHSPISSDFAVKIRELSDYLLQDYPVTVASNLQDEELCGGLWRLVLAQRWMERLKTVAGSKMQGLLERVNTEIHFVTKCAFQPPPSCLRFVQTNISRLLQETSEQLVALKPWITRQNFSRCLELQCQPDSSTLPPPWSPRPLEATAPTAPQPP
The molecule B1 showed an Average EC50 (n = 9), BAF3/G-CSF cell proliferation ([3H]-thymidine) in assay [1] of more than 2 nM. Moreover, in assay [2], the Average EC50 (n = 12), BAF3/Flt cell proliferation ([3H]-thymidine) was 0.03 nM and the Average Rel. Potency, BAF3/Flt cell proliferation turned out to be 1.
